Assay results: publication PMC4449183, “Structural-Functional Analysis Reveals a Specific Domain Organization in Family GH20 Hexosaminidases” (PLoS ONE, 2015)

T1: Construct A (residues 40–528) of B. bifidum lacto-N-biosidase, GH20b-GH20-α (Bifidobacterium bifidum (strain DSM …, UniProt B3TLD6))
T1 chain: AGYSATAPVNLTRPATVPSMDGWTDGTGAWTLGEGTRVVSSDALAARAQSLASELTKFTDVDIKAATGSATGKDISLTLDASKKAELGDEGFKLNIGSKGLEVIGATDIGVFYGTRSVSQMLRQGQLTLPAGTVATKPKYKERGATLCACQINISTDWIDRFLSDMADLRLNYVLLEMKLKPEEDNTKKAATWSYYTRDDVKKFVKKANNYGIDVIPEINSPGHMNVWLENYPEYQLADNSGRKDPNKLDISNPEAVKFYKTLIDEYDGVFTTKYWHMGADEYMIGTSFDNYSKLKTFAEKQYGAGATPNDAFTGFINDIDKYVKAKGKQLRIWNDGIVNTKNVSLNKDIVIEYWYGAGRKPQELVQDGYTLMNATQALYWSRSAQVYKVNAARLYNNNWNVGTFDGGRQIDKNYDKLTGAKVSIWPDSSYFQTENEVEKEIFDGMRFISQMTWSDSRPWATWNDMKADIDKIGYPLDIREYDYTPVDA

B1: Construct F (546–776) of B. bifidum lacto-N-biosidase, the single lectin domain (domain or fragment, Bifidobacterium bifidum, UniProt B3TLD6 546-776, looked up)
chain: LITTPDGYYQMKDTVSGKCLALFTGSKHLDVVTQVGARPELRNCADVSVGQDQRNTANERNTQKWQIRADKDGKYTISPALTQQRLAIATGNEQNIDLETHRPAAGTVAQFPADLVSDNALFTLTGHMGMSATVDSKTVNPASPSKITVKVRAASNANTGDVTVTPVVPEGWEIKPGSVSLKSIPAGKAAIAYFNVVNTTGTGDATVQFKLTNTKTGEELGTTSVALTGSL
B2: Construct A (residues 40–528) of B. bifidum lacto-N-biosidase, GH20b-GH20-α (domain or fragment, Bifidobacterium bifidum, UniProt B3TLD6 40-528, looked up)
chain: T1 chain
notes: Lacto-N-biosidase (LnbB), Bifidobacterium bifidum, residues 40-528 (GH20b and GH20 domains with the extra α-helix); synthetic codon-optimised gene in pET28a+ (NdeI/Bpu1102); Mainly dimeric in solution by gel filtration; theoretical mass 57 kDa; also called GH20b-GH20-α construct; source: E. coli BL21 (DE3) star, purified (Ni2+ HiTrap chelating column, Superdex 200)

Tests used:
[1] = target: B2; assay: cell-based or functional assay
[2] = target: T1, Construct A (residues 40–528) of B. …; assay: SEC co-elution with SDS-PAGE, plus activity complementation assay
[3] = target: the molecule itself; assay: SEC; single purified proteins on XK16/60 Superdex 200 in buffer A (Na2HPO4 20 mM, NaCl 150 mM, pH 7.5)

Row | Binder | hydrolytic activity on p-nitrophenyl β-lacto-N-bioside of 50 nM construct A with 25 nM-500 nM construct F (pH 4.5, 30°C), relative to the full length enzyme; levels off at a molar ratio of 1:6 [1] | binding result [2] | stoichiometry N [3]
1 | B1 | 11% | binds | –
2 | B2 | – | – | 2
